Paper PMC3185932, “A truncated form of CD9-partner 1 (CD9P-1), GS-168AT2, potently inhibits in vivo tumour-induced angiogenesis and tumour growth” (British Journal of Cancer, 2011)

Target: the molecule itself
Assay: SDS-PAGE (Coomassie blue) and Western blot of the purified protein; purified GS-168AT2; 36 kDa band seen by Coomassie blue and recognised by 229T mAb

B1: GS-168AT2, truncated form of CD9 partner-1 (CD9P-1), amino acid 724-832 (domain or fragment, human, UniProt Q9P2B2 724-832, looked up)
chain: DMAFDVSWFAVHSFGLDKAPVLLSSLDRKGIVTTSRRDWKSDLSLERVSVLEFLLQVHGSEDQDFGNYYCSVTPWVKSPTGSWQKEAEIHSKPVFITVKMDVLNAFKYP
notes: CD9 partner-1 (CD9P-1/FPRP/EWI-F), human, amino acid 724-832: the unglycosylated extracellular portion next to the transmembrane domain; cDNA from RNA of human endothelial cells; no removal of the tag is described. pET-30 EK/LIC is known to add His and S tags at the N-terminus (surmised); also called truncated CD9P-1; source: E. coli BL21(DE3)pLys, purified from the insoluble fraction in urea …
B1: binds.
